Data set [1] in a line: Particle size, polydispersity and zeta-potential by dynamic light scattering. The format is physicochemical. Conditions: Table 2, polystyrene nanoparticles. The method, then: Nanoparticle carrier particles were formed by the methods of the preceding Example, and characterized as follows. The particle size and the zeta-potential were measured using Zeta Plus zeta-potential analyzer (Brookhaven Instruments Ltd., New York, N.Y.), which employs the dynamic light scattering technique for particle size measurement. The particle size and zeta-potential measurements were made after 1:1000 dilution of particle stock in filtered deionized water. Further, the particles were visualized using a transmission electron microscope (TEM). The carbon-coated grids were floated on a suspension droplet of plain or functionalized nanoparticles on a flexible plastic film (Parafilm, Pechiney Plastic Packaging, Neenah, Wis.) to allow the adsorption of nanoparticles onto the grid. After drying the particles, uranyl acetate was added as a negative stain to the carbon grid and allowed to react with the particles. This procedure makes the particles electron dense, allowing their visualization using an electron microscope. The particles were photographed using EM410 Phillips electron microscope (Eindhoven, The Netherlands) set at 60 kV and a magnification of 153000×.
Characterization of particles: The particle size and the zeta-potential were measured using ZetaPlus® zeta-potential analyzer, Brookhaven Instruments Ltd. (New York, N.Y.), which employs the dynamic light scattering technique for particle size measurement. The particle size and zeta-potential measurements were carried out after 1:1000 dilution of particle stock in filtered deionized water before lyophilization in filtered deionized water. The effective diameter of conjugated nanoparticles was higher than that of unconjugated nanoparticles.
Particle Size Analysis: Particle size and zeta-potential of the nanoparticles before and after conjugation following lyophilization were measured in double distilled water (100 μl of particle/1 ml of water) using dynamic light scattering (DLS). After lyophilization the plasmid loaded particles were weighed (1 mg) into glass Kimble tubes. To each tube, 1 ml of double distilled water was added and vortexed at high speed (Vortex Genie, Scientific Industries, Bohemia, N.Y.) till the particles were resuspended. The particle size and zeta potential was determined using dynamic light scattering after dilution (1:10 in double distilled water) (Brookhaven Instruments Corp., Holtsville, N.Y.). Nanoparticle size after lyophilization was 210.4±0.68 nm and zeta potential was −32.85±0.87 mV. Nanoparticle size and zeta potential was measured after conjugation with deslorelin and transferrin. Similarly, the unconjugated nanoparticles were also treated under the same conditions as with the conjugated nanoparticles (the conjugation protocol as mentioned above).
Transport studies were conducted in bovine nasal tissue. Bovine nasal tissue was obtained from freshly slaughtered cattle, and different regions (MTA, MTP, ITP) were prepared as described in Example 13. Nanoparticles coupled to deslorelin or transferring via aldehyde sulfate moieties were prepared as described in Example 3. The nanoparticle size was measured using a Zeta Plus Analyzer (Brookhaven Instruments Limited, UK). Particle size was analyzed before and after ligand conjugation in deionized filtered water.

The subject of data set [2] is bovine corneal epithelium, stroma, endothelium and aqueous humor. Nature of the data set: Eye drop nanoparticle uptake in excised (ex vivo) bovine eye model. In kind it is in vitro ADME. The method, then: The precorneal residence of eye drops is very short and effective delivery to the cornea requires rapid binding and entry of drugs or carriers in vivo. The in vivo situation was simulated using an intact bovine eye for an ex vivo model. […] Then, the particle uptake at 5 and 60 min was measured following thorough washing of the eye surface to remove any loosely adherent particles. The uptake was expected to be the highest for the solutes or carriers tightly bound to the corneal surface or for those that are rapidly taken up by the corneal epithelium. To maintain the surface moisture and to simulate tear flow in part, buffer drops (50 μl) were administered every 15 min, and the water bath was sealed.
Freshly excised bovine eyes were obtained from a local slaughterhouse (Nebraska Beef, Omaha, Nebr.). The experiments were initiated within 2-3 hours after sacrifice. For the experiment, bovine eyes were placed in Teflon coated wells containing assay buffer to immerse the posterior segment, while exposing the cornea towards the surface. The Teflon coated well plate was placed in a shaking water bath maintained at 37° C. and the water bath was sealed with Saran Wrap™ (S.C. Johnson & Son, Inc., Racine, Wis.). Alternatively, the setup was placed in a cold room maintained at 4° C. Prior to dosing, the eyes were equilibrated for about 30 min with assay buffer at 37° C. or 4° C. as required. The measured temperatures of the vitreous humor and aqueous humor in the 37° C. study were ˜37° C. and ˜35° C., respectively. The measured temperature was ˜5° C. for both vitreous humor as well as aqueous humor in the 4° C. study. In the ex vivo studies, either 5 or 60 min time points were chosen since eye drops are rapidly cleared from the tissue surface and because high solute uptake is desired in a short time with eye drops.
Ex vivo model studies involved administration of a 50 μl dosing solution/suspension drop to the cornea followed by 50 μl drops of assay buffer on the cornea every 15 minutes to maintain corneal moisture. At the end of 0, 5, or 60 minutes study, the corneal surface was washed thrice with assay buffer (1 ml each time) followed by three washes with acid buffer (1 ml each time; assay buffer adjusted to pH 5.0 with HCl) to remove any loosely adherent nanoparticles prior to tissue analysis. The same protocol was followed even when plain buffer drops were assessed. To initiate the uptake experiment, a 50 μl eye drop of 10 mg/ml (in studies assessing the influence of epithelium in particle uptake) or 1 mg/ml nanoparticle suspension (unconjugated nanoparticles with carboxylate functionalities, deslorelin-CA and transferrin-CA) was topically administered to isolated bovine eyeballs. Buffer and wash treatments were performed as described above. At 5 and 60 minutes after drop instillation, the incubation was terminated and the corneal epithelium, stroma, endothelium and aqueous humor (0.5 ml) were isolated from the eyeball. The tissues were homogenized in 2% Triton-X. The supernatant obtained after centrifuging tissue homogenate at 5000 rpm (Marathon Micro AR, Fisher Scientific) for 10 minutes was analyzed by spectrofluorometry at excitation and emission wavelengths of 505 and 515 nm, respectively.

For another data set, the system named is excised bovine cornea. In words: Nanoparticle transport and uptake, excised bovine cornea in modified Ussing chambers. In kind it is in vitro ADME. The method, then:
(§1) Nanoparticle uptake and transport studies were performed using excised bovine cornea and conjunctiva mounted in vertical diffusion chambers. Modified Ussing chambers (Navicyte, Reno, N.Y.) were used to mount bovine corneas and conjunctivas for transport studies. The tissues were exposed to 1.5 ml of assay buffer with either conjugated or unconjugated nanoparticles (100 μg/ml) on the mucosal/tear side (donor side). The area of exposure is 0.64 cm^2 for conjunctiva and slightly greater for cornea due to curvature. The receiver side was exposed to 1.5 ml of assay buffer without nanoparticles. The buffers were pre-equilibrated to 37° C. or 4° C. as required and the chambers were maintained at the desired temperature. […] The experiment was terminated at 4 hours and the samples were stored in polypropylene tubes at 4° C. until analysis.
(§2) At the end of 4 hour transport studies, the tissue area exposed to particle suspension (aperture area: 0.64 cm^2) were cut and washed thrice with assay buffer followed by the acid buffer (pH 5.0). The tissues were then homogenized in 2% Triton-X using Tissue Tearor™. The tissue debris was separated by centrifugation at 3000 rpm (Marathon Micro AR) for 10 minutes. The supernatant was collected to analyze the amount of nanoparticles taken up by the tissue. The supernatant was analyzed by spectrofluorometry at excitation and emission wavelengths of 505 and 515 nm, respectively.

Data set [3] concerns excised bovine conjunctiva. Nature of the data set: Nanoparticle transport and uptake, excised bovine conjunctiva in modified Ussing chambers. The format is in vitro ADME. The method, then: as §1, §2
For the next data set, the target named is LHRH-receptor. In words: Receptor binding assays (kinetic, saturation, competition) with 125I-deslorelin in bovine pituitary and nasal tissue homogenates. Conditions: for IC50: read-out: Low affinity - IC50 II. The method, then: Radioactivity was measured in the pellet using a Perkin-Elmer γ-counter.
Reprod. […] Reprod. […] Radioactivity was measured in the pellet using a Perkin-Elmer γ-counter. […] The experiment was repeated three times.
Competition Studies: To determine the amount of unlabelled deslorelin required to displace the radioactivity, competition studies were conducted. […] Assays were performed in triplicates. At the end of 4 hr, the incubation tubes were centrifuged at 10,000 g for 20 min at 4° C. to separate the bound fraction. Radioactivity was measured in the pellet using a Perkin-Elmer γ-counter. The same controls as in the kinetic and saturation studies were used. The experiment was repeated three times.

Data set [4] is described as follows: 3H-mannitol transport across excised bovine cornea (corneal barrier integrity). To be noted: read-out: apparent permeability coefficient of mannitol. In kind it is in vitro ADME. The method, then:
The corneal barrier integrity in the ex vivo bovine model of Example 5 was also studied by analysis of ^3H-mannitol transport, with or without nanoparticle exposure. ^3H-mannitol was obtained from American Radiolabeled Chemicals, Inc. (St. Louis, Mo.). ^3H-mannitol transport across excised bovine cornea was performed without any treatment or after dosing the bovine ex vivo eye model with a 50 μl drop of assay buffer or 50 μl of 1 mg/ml nanoparticle suspension followed by incubation up to 60 min with buffer treatments as described above. Temperature was maintained at 37° C.
At 0, 5 and 60 minutes after assay buffer drop instillation and 60 min after nanoparticles drop instillation, the eyes were washed thrice with assay buffer (1 ml each time) and the corneas were isolated from the eyeball. The tissues were then mounted in modified Ussing chambers (Navicyte, Reno, N.Y.) for mannitol transport study. The aperture area of the chambers is 0.64 cm^2. The corneal area exposed was expected to be slightly greater than the chamber aperture area due to corneal curvature. ^3H-mannitol (1.5 ml; 1 μCi/ml) was placed in the donor chamber (epithelial to endothelial transport) and plain assay buffer (1.5 ml) was placed in the receiver chamber. At various time points up to 4 hours, 200 μl samples were removed from the receiver chamber and replaced with an equal volume of fresh assay buffer. To each sample, 4 ml of scintillation fluid (Fisher Scientific, NJ) was added and the radioactivity was quantified using a liquid scintillation counter. […] Data are expressed as mean±standard deviation for n=4.

The conditions of data set [5]: in vivo, cited from earlier work.
[6] abbreviates: Corneal Epithelium, 50 μl of 1 mg/ml.
Setting [7] is: Corneal Stroma, 50 μl of 1 mg/ml.
The mark [8] stands for this setting: versus unconjugated nanoparticles, 37° C.

Like-named read-outs stand apart in the source and are kept apart here.

By IC50 is commonly meant the concentration that inhibits the measured activity by half. By bioavailability is commonly meant the share of a dose that reaches the circulation, judged against a reference dose that is usually intravenous.

For “Transferrin-CA: transferrin-carboxylate-conjugated polystyrene nanoparticles”, in data set [1], the Zeta potential is −29.24 ± 4.33 mV. Further, the “Measured Diameter” value in data set [1] (1:1000 dilution in filtered deionized water, includes hydrodynamic layer, n = 3) is recorded as 84.7 ± 0.8 nm. For the same compound, the “Corneal epithelial uptake (60 min)” value in data set [2] (Control (4° C.)) is reported as 307.1 ± 124 ng/mg tissue/mg dose. Also, the “Corneal epithelial uptake (60 min)” value in data set [2] (Control (37° C.)) was 1146.3 ± 306.6 ng/mg tissue/mg dose. For the same compound, in data set [2] (setting [6]), the “Concentration at 5 min” value is given as 791 ± 239 ng/mg tissue/mg dose, the “Concentration at 60 min” value is on record as 1146 ± 307 ng/mg tissue/mg dose, the “NP uptake at 5 min (%)” value was 4.96% and the “NP uptake at 60 min (%)” value was determined as 7.19%. In data set [2] (setting [7]), the “NP uptake at 5 min (%)” value worked out at 10.98% and the “NP uptake at 60 min (%)” value is recorded as 3.31%. The “Corneal epithelial uptake (60 min)” value in data set [2] (With free ligand (37° C.), free deslorelin or transferrin 1 mg/ml) was 467.1 ± 131.9 ng/mg tissue/mg dose. For the same compound, in data set [2] (summary of Examples 5-8), the “total corneal uptake in 5 min” value is about 16%. Further, in the data set on excised bovine cornea (37° C.), the “uptake by isolated bovine cornea at the end of 4 hours” value came to 2.36±0.03%. The “cumulative transport in 4 hours across isolated bovine cornea” value in the data set on excised bovine cornea (37° C., 100 μg/ml donor) was 2.76±0.03%. Besides, the “reduction in corneal uptake at 4° C.” value with excised bovine cornea (versus 37° C.) stood at 47%. Also, in the data set on excised bovine cornea (setting [8]), the “increase of percent transport across bovine cornea by conjugation” value is recorded as 74%. For the same compound, the “uptake in bovine conjunctiva at the end of 4 hours” value in data set [3] (37° C.) was 2.83±0.03%. Besides, the “cumulative transport in 4 hours across conjunctiva” value in data set [3] (37° C., 100 μg/ml donor) is 3.5±0.1%. For the same compound, in data set [3] (versus 37° C.), the “reduction in conjunctival uptake at 4° C.” value is listed as 52% and the “reduction in the cumulative transport in conjunctiva at 4° C.” value is reported as 89%. In data set [3] (setting [8]), the “increase of percent transport across conjunctiva by conjugation” value came to 51%.
Turning to `CCNC(=O)[C@@H]1CCCN1C(=O)[C@H](CCCN=C(N)N)NC(=O)[C@H](CC(C)C)NC(=O)[C@@H](Cc1c[nH]c2ccccc12)NC(=O)[C@H](Cc1ccc(O)cc1)NC(=O)[C@H](CO)NC(=O)[C@H](Cc1c[nH]c2ccccc12)NC(=O)[C@H](Cc1cnc[nH]1)NC(=O)[C@@H]1CCC(=O)N1` [deslorelin], the IC50 is 0.0329 ± 0.00125 µM at LHRH-receptor (ITP); 0.0532 ± 0.004 µM on LHRH-receptor (MTA); 0.0421 ± 0.00184 µM at LHRH-receptor (MTP); 0.0179 ± 0.000449 µM at LHRH-receptor (Pituitary, competition with 125I-deslorelin). The “high affinity binding sites as share of all the binding sites available” value in the data set with LHRH-receptor (competition studies, nasal tissue regions) is reported as 60-70%.
Turning to `OC[C@@H](O)[C@@H](O)[C@H](O)[C@H](O)CO` [mannitol], the Papp at 4 h, 1 μCi/ml in data set [4] (corneas isolated at 5 min following 50 μl assay buffer drop) turned out to be 5 ± 1 nm/s; in data set [4] (corneas isolated at 60 min following 50 μl assay buffer drop) it was 4.7 ± 0.4 nm/s; in data set [4] (freshly isolated corneas), 4 ± 1 nm/s.
With `CCNC(=O)[C@@H]1CCCN1C(=O)[C@H](CCCNC(=N)N)NC(=O)[C@H](CC(C)C)NC(=O)[C@@H](CC(C)C)NC(=O)[C@H](Cc1ccc(O)cc1)NC(=O)[C@H](CO)NC(=O)[C@H](Cc1c[nH]c2ccccc12)NC(=O)[C@H](Cc1c[nH]cn1)NC(=O)[C@@H]1CCC(=O)N1` [leuprolide], the bioavailability in data set [5] (inhaled or intranasal) is 2.9%; in data set [5], 28%.

Source of the values: patent US8821943B2, “Methods and compositions for targeted delivery of therapeutic agents” (Board of Regents of the University of Nebraska, priority 2006, dated 2014).
